Key:
[1] = molecular target: T1, VEGFR2-His (residues 1-764 of VEGFR2, Ig-like domains 1-7, with hexahistidine tag) (human, UniProt P35968 20-764); assay: KinExA, equilibrium titration in solution, n-curve analysis
T1 construct: range 1-764; Monomeric form, expressed in FreeStyle 293-F cells; also called VEGFR-His
Experimental: (§1) For KinExA measurements, a constant amount of PDGF/VEGF ligand is titrated with differing concentrations of PDGRβ-His or VEGFR2-His. The solutions are incubated for an appropriate amount of time to allow the ligand-receptor binding reaction to reach equilibrium. The solution is then briefly exposed to a solid support containing immobilized PDGFR or VEGFR, which captures unbound ligand. The amount of ligand bound to the solid support is then detected using a fluorescently-labeled antibody. […] For each binding interaction measured, curves for two concentrations of the constant ligand are performed. By performing two experiments with fixed ligand concentrations above and below the Kd, and fitting both sets of data with a nonlinear regression analysis, a more accurate measurement for the affinity can be obtained.
(§2) Kinetic Exclusion Assay (KinExA). All experiments were performed on a KinExA 3200 instrument with siliconized flow cell (Sapidyne Instruments Inc). […] 30 μg of receptor was incubated in 1 ml of 50 mM sodium bicarbonate, 0.5 M sodium citrate buffer, pH 8.3, for 2 hr at room temperature with rocking. Beads were allowed to settle by gravity and liquid removed. Beads were blocked by incubating in 1 ml of 10 mg/ml BSA in 1 M Tris buffer, pH 8.0, for 1 hr at room temperature with rocking, and stored in blocking buffer at 4° C. for up to one week until use. Running buffer contained PBS with 10 mM imidazole and 0.02% sodium azide. Samples were prepared in running buffer with 1 mg/ml BSA. Binding reactions were prepared with a fixed concentration of PDGF/VEGF ligands and dilution series of PDGFR or VEGFR. Captured PDGF/VEGF ligands were detected using a Dylight 649-conjugated anti-FLAG antibody (Rockland) at 1:1000 dilution in sample buffer. Kinetic experiments were performed with the “Kinetics Injection” method defined in the KinExA software. Data were analyzed with KinExA Pro Software.

[2] = molecular target: T2, PDGFRβ-His (residues 1-314 of PDGFR-β with C-terminal hexahistidine tag) (human, UniProt P09619 33-314); assay: as above
T2 construct: range 1-314; Monovalent form, expressed in FreeStyle 293-F cells; also called PDGRβ-His; PDGFR-His
Experimental: as §1, §2

[3] = molecular target: T3, human VEGFR on human umbilical vein endothelial cells (HUVECs) (human, UniProt P35968 20-1356); assay: flow cytometry on HUVECs, soluble ligand titrated 3 h at 4 C, anti-FLAG-PE
T3 construct: The phosphorylation blots on these cells detect VEGFR2
T3 sequence (P35968 20-1356 limits assumed): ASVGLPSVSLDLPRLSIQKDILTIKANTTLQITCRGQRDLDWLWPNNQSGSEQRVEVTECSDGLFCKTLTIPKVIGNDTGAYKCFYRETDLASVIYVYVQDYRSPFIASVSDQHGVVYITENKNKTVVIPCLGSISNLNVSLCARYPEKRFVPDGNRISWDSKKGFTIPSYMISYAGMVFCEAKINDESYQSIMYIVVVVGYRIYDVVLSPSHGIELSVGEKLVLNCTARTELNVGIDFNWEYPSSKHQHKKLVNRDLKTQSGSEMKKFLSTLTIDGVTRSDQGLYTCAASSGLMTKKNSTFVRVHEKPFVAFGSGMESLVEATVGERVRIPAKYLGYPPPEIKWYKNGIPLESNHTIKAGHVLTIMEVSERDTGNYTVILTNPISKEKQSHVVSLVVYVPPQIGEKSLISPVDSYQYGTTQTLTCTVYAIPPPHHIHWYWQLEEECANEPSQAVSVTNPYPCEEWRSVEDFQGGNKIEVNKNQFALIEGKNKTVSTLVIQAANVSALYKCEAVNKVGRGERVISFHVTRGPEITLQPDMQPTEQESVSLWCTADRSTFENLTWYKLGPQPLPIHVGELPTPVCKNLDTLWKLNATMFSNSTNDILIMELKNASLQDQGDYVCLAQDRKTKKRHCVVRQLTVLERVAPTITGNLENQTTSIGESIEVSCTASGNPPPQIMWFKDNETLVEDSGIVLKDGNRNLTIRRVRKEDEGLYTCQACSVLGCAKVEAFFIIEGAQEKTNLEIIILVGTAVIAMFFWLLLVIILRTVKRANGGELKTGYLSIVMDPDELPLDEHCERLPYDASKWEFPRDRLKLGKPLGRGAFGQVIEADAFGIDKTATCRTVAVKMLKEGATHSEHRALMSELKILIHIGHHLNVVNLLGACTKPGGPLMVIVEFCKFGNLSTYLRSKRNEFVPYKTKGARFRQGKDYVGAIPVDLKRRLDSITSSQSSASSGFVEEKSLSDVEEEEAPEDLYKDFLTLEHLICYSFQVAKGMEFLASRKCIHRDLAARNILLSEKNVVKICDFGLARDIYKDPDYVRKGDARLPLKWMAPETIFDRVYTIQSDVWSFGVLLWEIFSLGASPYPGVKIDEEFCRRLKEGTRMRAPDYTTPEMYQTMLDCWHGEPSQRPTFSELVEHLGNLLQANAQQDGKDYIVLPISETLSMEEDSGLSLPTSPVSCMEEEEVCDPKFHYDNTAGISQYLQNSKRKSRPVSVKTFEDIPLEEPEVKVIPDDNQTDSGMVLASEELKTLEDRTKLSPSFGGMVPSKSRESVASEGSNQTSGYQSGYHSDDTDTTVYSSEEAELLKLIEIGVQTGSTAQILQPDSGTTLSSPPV
Experimental: (§3) To test binding to VEGFR, human umbilical vein endothelial cells (HUVECs) and murine angiosarcoma endothelial cells (SVR) were used.
(§4) Cell-binding assay. Varying concentrations of scPDGF, scVEGF, and PDGF/VEGF ligands were incubated with 25,000 PDGFR- or VEGFR-expressing cells in binding buffer (20 mM Tris pH 7.5 with 1 mM MgCl₂, 1 mM MnCl₂, 2 mM CaCl₂, 100 mM NaCl, and 1 mg/ml BSA) for 5 hr (BJ-5ta, NIH/3T3) or 3 hr (HUVEC, SVR) at 4° C. Cells were washed and pelleted, then incubated with 1:100 R-PE-conjugated anti-FLAG antibody (Prozyme) for 15 min on ice. Cells were washed, pelleted, and resuspended in binding buffer immediately before analysis by flow cytometry using BD Accuri C6. Flow cytometry data were analyzed using BD Accuri C6 software, and statistical analysis was performed using GraphPad Prism 6.

[4] = molecular target: T3, human VEGFR on human umbilical vein …; assay: flow cytometry titration of the soluble FLAG-tagged protein on HUVECs, anti-FLAG detection
Experimental: as §3, §4

[5] = molecular target: T1, VEGFR2-His (residues 1-764 of VEGFR2, …); assay: KinExA Kinetics Injection
Experimental: (§5) Additionally, the kinetic parameter kₒₙ can be determined by using a “kinetics injection” experiment. A constant concentration of PDGF/VEGF ligand is injected with an equal volume of differing concentrations of PDGRβ-His or VEGFR2-His. The two solutions are allowed to mix briefly (several seconds) in the time required for the instrument to deliver the mixture to the detection bead column. The pre-equilibrium concentrations of free ligand is fit to the standard bimolecular rate equation to obtain kₒₙ.
(§6) Kinetic Exclusion Assay (KinExA). All experiments were performed on a KinExA 3200 instrument with siliconized flow cell (Sapidyne Instruments Inc). […] 30 μg of receptor was incubated in 1 ml of 50 mM sodium bicarbonate, 0.5 M sodium citrate buffer, pH 8.3, for 2 hr at room temperature with rocking. Beads were allowed to settle by gravity and liquid removed. Beads were blocked by incubating in 1 ml of 10 mg/ml BSA in 1 M Tris buffer, pH 8.0, for 1 hr at room temperature with rocking, and stored in blocking buffer at 4° C. for up to one week until use. Running buffer contained PBS with 10 mM imidazole and 0.02% sodium azide. Samples were prepared in running buffer with 1 mg/ml BSA. Binding reactions were prepared with a fixed concentration of PDGF/VEGF ligands and dilution series of PDGFR or VEGFR. Captured PDGF/VEGF ligands were detected using a Dylight 649-conjugated anti-FLAG antibody (Rockland) at 1:1000 dilution in sample buffer. Kinetic experiments were performed with the “Kinetics Injection” method defined in the KinExA software. Data were analyzed with KinExA Pro Software. The Kd was determined from a global fit of two concentration curves using the “n-curve analysis” tool and the titrant concentrations as reference. […] The kₒₙ was calculated as a fit of the pre-equilibrium free ligand concentrations to the bimolecular binding equation using the “Kinetics Injection” tool.

[6] = molecular target: T2, PDGFRβ-His (residues 1-314 of PDGFR-β …); assay: KinExA Kinetics Injection
Experimental: as §5, §6

[7] = molecular target: T1, VEGFR2-His (residues 1-764 of VEGFR2, …); assay: KinExA, calculated from Kd and kon
Experimental: (§7) By performing two experiments with fixed ligand concentrations above and below the Kd, and fitting both sets of data with a nonlinear regression analysis, a more accurate measurement for the affinity can be obtained.
as §5, §6

[8] = molecular target: T2, PDGFRβ-His (residues 1-314 of PDGFR-β …); assay: KinExA, calculated from Kd and kon
Experimental: as §7, §5, §6

[9] = molecular target: T4, scPDGF, single-chain version of wild-type PDGF-BB, soluble, FLAG and hexahistidine tags (human); assay: cell-based or functional assay
T4 chain: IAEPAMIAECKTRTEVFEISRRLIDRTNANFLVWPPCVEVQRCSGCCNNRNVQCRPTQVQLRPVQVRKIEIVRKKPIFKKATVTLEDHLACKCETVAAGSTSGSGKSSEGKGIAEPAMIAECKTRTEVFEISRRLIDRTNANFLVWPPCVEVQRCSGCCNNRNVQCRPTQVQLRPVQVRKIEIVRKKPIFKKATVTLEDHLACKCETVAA

scPDGF, yeast-displayed = molecular target: T5, scPDGF, yeast-displayed (human); assay: yeast surface display of scPDGF, flow cytometry titration of PDGFRβ-Fc, anti-mouse-Fc detection
T5 chain: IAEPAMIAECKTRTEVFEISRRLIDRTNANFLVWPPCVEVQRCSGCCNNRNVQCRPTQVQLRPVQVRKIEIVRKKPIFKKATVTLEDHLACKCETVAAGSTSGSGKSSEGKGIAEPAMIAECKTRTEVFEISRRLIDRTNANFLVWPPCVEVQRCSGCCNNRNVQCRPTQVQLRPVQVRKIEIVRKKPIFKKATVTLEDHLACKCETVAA
Experimental: (§8) Cells were incubated in large enough volumes to avoid ligand depletion and appropriate time to reach equilibrium. During the last hour of incubation, yeast were incubated with 1:250 dilution of chicken anti-c-Myc (Invitrogen) in PBSA. […] Yeast were washed, pelleted, and resuspended in PBSA immediately before analysis by flow cytometry using BD FACSCalibur or BD Accuri C6. Flow cytometry data were analyzed using FlowJo (v7.6.1 and v10, Treestar) or BD Accuri C6 software. Statistical analysis was performed using GraphPad Prism 6.
Bound protein was detected using fluorescently-labeled anti-His and anti-mouse-Fc antibodies.

[10] = molecular target: T6, soluble VEGFR2 (Fc or His format not stated for the experiment) (human, UniProt P35968 20-764); assay: yeast surface display, flow cytometry dot plot: soluble receptor bound (FL1) against surface expression (FL2); receptor concentration not given
T6 construct: extracellular domain
T6 sequence (P35968 20-764): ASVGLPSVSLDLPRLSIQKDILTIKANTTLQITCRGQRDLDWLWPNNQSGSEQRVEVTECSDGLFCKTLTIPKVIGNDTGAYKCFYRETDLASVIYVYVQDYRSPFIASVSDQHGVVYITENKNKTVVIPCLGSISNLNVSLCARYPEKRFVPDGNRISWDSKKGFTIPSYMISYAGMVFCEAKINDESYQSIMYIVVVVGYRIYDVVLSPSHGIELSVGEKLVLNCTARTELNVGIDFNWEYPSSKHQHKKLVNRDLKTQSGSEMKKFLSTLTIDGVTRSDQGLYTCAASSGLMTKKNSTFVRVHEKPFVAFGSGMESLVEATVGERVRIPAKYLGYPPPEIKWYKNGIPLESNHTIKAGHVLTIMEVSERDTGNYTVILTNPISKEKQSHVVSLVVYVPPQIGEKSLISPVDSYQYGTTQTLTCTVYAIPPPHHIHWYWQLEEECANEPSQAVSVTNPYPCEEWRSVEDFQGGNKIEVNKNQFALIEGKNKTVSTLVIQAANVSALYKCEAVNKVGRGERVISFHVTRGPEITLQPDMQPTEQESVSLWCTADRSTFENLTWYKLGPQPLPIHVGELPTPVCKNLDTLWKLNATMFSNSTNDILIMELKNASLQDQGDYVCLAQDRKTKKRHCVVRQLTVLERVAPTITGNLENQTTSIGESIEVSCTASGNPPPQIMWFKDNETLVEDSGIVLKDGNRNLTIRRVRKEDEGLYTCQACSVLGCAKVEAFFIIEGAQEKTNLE

[11] = molecular target: T2, PDGFRβ-His (residues 1-314 of PDGFR-β …); assay: yeast surface display, flow cytometry titration of PDGFRβ-His (panel 'PDGFRβ binding')
Experimental: as §8

[12] = molecular target: T7, soluble PDGFRβ (Fc or His format not stated for the experiment) (human, UniProt P09619 33-532); assay: yeast surface display titration; table under the panel 'PDGFR binding', Fc or His form not given
T7 construct: extracellular domain

VEGFR2-Fc (R&D Systems) = molecular target: T8, VEGFR2-Fc (R&D Systems) (human, UniProt P35968 20-764); assay: yeast surface display, flow cytometry: VEGFR2-Fc bound, with and without pre-incubation with 100 nM PDGFRβ-Fc
T8 construct: extracellular domain; Bought reagent; also called VEGFR-Fc; not shown: Fc part, detected with anti-human-IgG (Fc specific)
T8 sequence (P35968 20-764): as above
Experimental: as §8

[13] = molecular target: T7, soluble PDGFRβ (Fc or His format not …); assay: yeast surface display, flow cytometry titration of soluble receptor; panel 'PDGFR binding', Fc or His form not given
[14] = molecular target: T2, PDGFRβ-His (residues 1-314 of PDGFR-β …); assay: yeast surface display titration, flow cytometry
Experimental: as §8

[15] = molecular target: T6, soluble VEGFR2 (Fc or His format not …); assay: yeast surface display titration; table under the panel 'VEGFR binding', Fc or His form not given
[16] = molecular target: T1, VEGFR2-His (residues 1-764 of VEGFR2, …); assay: yeast surface display titration, flow cytometry
Experimental: as §8

T1 sequence (P35968 other isoform, or with tags, fused parts or gaps limits assumed, form in doubt): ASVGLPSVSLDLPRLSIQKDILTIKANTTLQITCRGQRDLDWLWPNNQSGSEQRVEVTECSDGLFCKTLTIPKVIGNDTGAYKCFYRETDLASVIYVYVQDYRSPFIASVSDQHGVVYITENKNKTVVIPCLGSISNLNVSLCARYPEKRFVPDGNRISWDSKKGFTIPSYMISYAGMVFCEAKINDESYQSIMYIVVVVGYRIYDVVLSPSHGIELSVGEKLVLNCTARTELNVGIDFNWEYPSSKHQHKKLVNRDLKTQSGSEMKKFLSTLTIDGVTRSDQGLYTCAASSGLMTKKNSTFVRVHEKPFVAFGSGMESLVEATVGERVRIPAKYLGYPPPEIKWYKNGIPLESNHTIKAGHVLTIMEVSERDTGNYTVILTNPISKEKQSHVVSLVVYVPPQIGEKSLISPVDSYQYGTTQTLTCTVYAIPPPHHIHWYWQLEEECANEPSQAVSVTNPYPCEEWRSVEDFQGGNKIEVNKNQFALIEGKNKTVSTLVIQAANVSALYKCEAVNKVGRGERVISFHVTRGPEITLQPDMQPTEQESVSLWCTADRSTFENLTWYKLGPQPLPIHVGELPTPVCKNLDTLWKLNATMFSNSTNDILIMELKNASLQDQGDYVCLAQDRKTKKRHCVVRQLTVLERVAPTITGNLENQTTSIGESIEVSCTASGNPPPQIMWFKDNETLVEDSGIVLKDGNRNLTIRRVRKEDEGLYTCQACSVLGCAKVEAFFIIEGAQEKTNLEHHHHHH

B1: PV6 PDGF/VEGF chimera, soluble, N-terminal FLAG and C-terminal hexahistidine tags (designed binder)
chain: DYKDDDDKIAEPAMIAECHPIETLVDIFQEYPDEIEYIFKPSCVPLMRCGGCCNNRNVQCRPTEESNITMQIMRIKPHQGQHIGEMSFLQHNKCKCETVAAGSTSGSGKSSEGKGEVVKFMDVYQRSYCKTRTEVFEISRRLIDRTNANFLVWPPCVEVQRCSGCCNDEGLECVPTQVQLRPVQVRKIEIVRKKPIFKKATVTLEDHLACKCRPKKDHHHHHH
notes: Secreted from S. cerevisiae YVH10 and treated with Endo Hf; also called soluble PV6
- Kd [1]: 38 nM
- Kd [2]: 0.87 nM
- Kd [3]: 11 nM
- EC50 (read off the curve) [4]: ~10 nM
- kon [5]: 240000 M⁻¹ s⁻¹
- kon [6]: 2.2e+07 M⁻¹ s⁻¹
- koff [7]: 0.0092 s⁻¹
- koff [8]: 0.019 s⁻¹

B2: PDGFRβ-Fc (residues 1-314 of PDGFR-β fused to the Fc region of mouse IgG2a) (Fc fusion)
chain: LVVTPPGPELVLNVSSTFVLTCSGSAPVVWERMSQEPPQEMAKAQDGTFSSVLTLTNLTGLDTGEYFCTHNDSRGLETDERKRLYIFVPDPTVGFLPNDAEELFIFLTEITEITIPCRVTDPQLVVTLHEKKGDVALPVPYDHQRGFSGIFEDRSYICKTTIGDREVDSDAYYVYRLQVSSINVSVNAVQTVVRQGENITLMCIVIGNEVVNFEWTYPRKESGRLVEPVTDFLLDMPYHIRSILHIPSAELEDSGTYTCNVTESVNDHQDEKAINITVVESG
notes: range 1-314; Expressed in FreeStyle 293-F cells; also called PDGRβ-Fc; PDGFR-Fc; not shown: Fc region of mouse IgG2a
- IC50 of inhibition of NIH/3T3 proliferation stimulated by scPDGF, alamarBlue [9]: 8.7 nM
- IC50 of inhibition of stimulation by 100 pM scPDGF, PathHunter reporter cells [9]: 130 pM
- EC50 (read off the curve) (scPDGF, yeast-displayed): ~0.03 nM

B3: PV1 PDGF/VEGF hybrid construct, yeast-displayed (designed binder)
chain: IAEPAMIAECKTRETLVDIFQEYPDEIEYIFKPSCVPLMRCSGCCNNRNVQCRPTEESNITMQIMRIKPHQGQHIGEMSFLQHLACKCETVAAGSTSGSGKSSEGKGEVVKFMDVYQRSYCHPITEVFEISRRLIDRTNANFLVWPPCVEVQRCGGCCNDEGLECVPTQVQLRPVQVRKIEIVRKKPIFKKATVTLEDHNKCECRPKKD
- binding result [10]: binds

B4: PVRF (PV6 with K87R and I182F), yeast-displayed (designed binder)
chain: IAEPAMIAECHPIETLVDIFQEYPDEIEYIFKPSCVPLMRCGGCCNNRNVQCRPTEESNITMQIMRIKPHQGQHIGEMSFLQHNKCRCETVAAGSTSGSGKSSEGKGEVVKFMDVYQRSYCKTRTEVFEISRRLIDRTNANFLVWPPCVEVQRCSGCCNDEGLECVPTQVQLRPVQVRKIEFVRKKPIFKKATVTLEDHLACECRPKKD
- EC50 (read off the curve) [11]: ~0.3 nM
- Kd [12]: 0.24 nM
- binding result (VEGFR2-Fc (R&D Systems)): binds
- EC50 (read off the curve) [13]: ~0.2 nM
- Kd [14]: 0.37 nM

B5: V4-22 (PV6 with F20L, E28G, Q71R, D160H), yeast-displayed (designed binder)
chain: IAEPAMIAECHPIETLVDILQEYPDEIGYIFKPSCVPLMRCGGCCNNRNVQCRPTEESNITMQIMRIKPHRGQHIGEMSFLQHNKCKCETVAAGSTSGSGKSSEGKGEVVKFMDVYQRSYCKTRTEVFEISRRLIDRTNANFLVWPPCVEVQRCSGCCNHEGLECVPTQVQLRPVQVRKIEIVRKKPIFKKATVTLEDHLACECRPKKD
notes: Variant from the Vshuf library
- Kd [15]: 1.9 nM
- Kd [16]: 1.3 nM

Source: patent publication US20180111972A1 (Stanford University, published 2018)
